Measured values: article PMC6739602, “Intestinal Gel-Forming Mucins Polymerize by Disulfide-Mediated Dimerization of D3 Domains” (Journal of Molecular Biology, 2019)

What was measured:
[1] = molecular target: the molecule itself; assay: SEC-MALS; Superdex 200 Increase 10/300 column, 0.5 ml/min, 25 mM Hepes (pH 7.4), 250 mM NaCl, 0.02% sodium azide
[2] = molecular target: the molecule itself; assay: SEC-MALS; Superose 6 10/300 column, 0.5 ml/min, 10 mM Tris (pH 7.4), 20 mM NaCl, 0.02% sodium azide

| Protein | stoichiometry N [1] | stoichiometry N [2] |
| --- | --- | --- |
| MUC2D3, mucin 2 recombinant protein spanning residues 858 to 1259 (domain or fragment, N-linked glycans (six potential N-linked glycosylation sites); for the crystals endoH-treated to leave only a monosaccharide at glycosylated asparagines; intersubunit disulfides C1088-C1088 and C1130-C1130, cleavage is predicted to occur between the two adjacent alanines; mucin 2 (MUC2), human, Uniprot Q02817, residues 858 to 1259 (VWD3, C8-3, TIL-3 and E-3 domains); Expressed in pcDNA3.1 downstream of the QSOX1 signal peptide; kifunensine/EndoH-treated protein gave the crystals of the solved structure; Disulfide-linked homodimer; also called mucin 2 multimerization module; MUC2 region spanning the …) APGTCSIYGSGHYITFDGKYYDFDGHCSYVAVQDYCGQNSSLGSFSIITENVPCGTTGVTCSKAIKIFMGRTELKLEDKHRVVIQRDEGHHVAYTTREVGQYLVVESSTGIIVIWDKRTTVFIKLAPSYKGTVCGLCGNFDHRSNNDFTTRDHMVVSSELDFGNSWKEAPTCPDVSTNPEPCSLNPHRRSWAEKQCSILKSSVFSICHSKVDPKPFYEACVHDSCSCDTGGDCECFCSAVASYAQECTKEGACVFWRTPDLCPIFCDYYNPPHECEWHYEPCGNRSFETCRTINGIHSNISVSYLEGCYPRCPKDRPIYEEDLKKCVTADKCGCYVEDTHYPPGASVPTEETCKSCVCTNSSQVVCRPEEGKILNQTQDGAFCYWEICGPNGTVEKHFNICSIT | 2 | – |
| D1D2D3, mucin 2 recombinant protein spanning residues 21 to 1259 (domain or fragment, human, UniProt Q02817 21-1259, looked up, mucin 2 (MUC2), human, Uniprot Q02817, residues 21 to 1259; Probably made with the same QSOX1 signal peptide as MUC2D3, which would leave Ala-Pro at the N-terminus; also called MUC2 D1D2D3; source: HEK293F, produced and purified essentially as for MUC2D3 (no kifunensine; preparative gel filtration in 10 mM Hepes pH 7.5, 20 mM NaCl); not shown: His6, C-terminal, kept) SELQTEGRTRNHGHNVCSTWGNFHYKTFDGDVFRFPGLCDYNFASDCRGSYKEFAVHLKRGPGQAEAPAGVESILLTIKDDTIYLTRHLAVLNGAVVSTPHYSPGLLIEKSDAYTKVYSRAGLTLMWNREDALMLELDTKFRNHTCGLCGDYNGLQSYSEFLSDGVLFSPLEFGNMQKINQPDVVCEDPEEEVAPASCSEHRAECERLLTAEAFADCQDLVPLEPYLRACQQDRCRCPGGDTCVCSTVAEFSRQCSHAGGRPGNWRTATLCPKTCPGNLVYLESGSPCMDTCSHLEVSSLCEEHRMDGCFCPEGTVYDDIGDSGCVPVSQCHCRLHGHLYTPGQEITNDCEQCVCNAGRWVCKDLPCPGTCALEGGSHITTFDGKTYTFHGDCYYVLAKGDHNDSYALLGELAPCGSTDKQTCLKTVVLLADKKKNVVVFKSDGSVLLNELQVNLPHVTASFSVFRPSSYHIMVSMAIGVRLQVQLAPVMQLFVTLDQASQGQVQGLCGNFNGLEGDDFKTASGLVEATGAGFANTWKAQSSCHDKLDWLDDPCSLNIESANYAEHWCSLLKKTETPFGRCHSAVDPAEYYKRCKYDTCNCQNNEDCLCAALSSYARACTAKGVMLWGWREHVCNKDVGSCPNSQVFLYNLTTCQQTCRSLSEADSHCLEGFAPVDGCGCPDHTFLDEKGRCVPLAKCSCYHRGLYLEAGDVVVRQEERCVCRDGRLHCRQIRLIGQSCTAPKIHMDCSNLTALATSKPRALSCQTLAAGYYHTECVSGCVCPDGLMDDGRGGCVVEKECPCVHNNDLYSSGAKIKVDCNTCTCKRGRWVCTQAVCHGTCSIYGSGHYITFDGKYYDFDGHCSYVAVQDYCGQNSSLGSFSIITENVPCGTTGVTCSKAIKIFMGRTELKLEDKHRVVIQRDEGHHVAYTTREVGQYLVVESSTGIIVIWDKRTTVFIKLAPSYKGTVCGLCGNFDHRSNNDFTTRDHMVVSSELDFGNSWKEAPTCPDVSTNPEPCSLNPHRRSWAEKQCSILKSSVFSICHSKVDPKPFYEACVHDSCSCDTGGDCECFCSAVASYAQECTKEGACVFWRTPDLCPIFCDYYNPPHECEWHYEPCGNRSFETCRTINGIHSNISVSYLEGCYPRCPKDRPIYEEDLKKCVTADKCGCYVEDTHYPPGASVPTEETCKSCVCTNSSQVVCRPEEGKILNQTQDGAFCYWEICGPNGTVEKHFNICSIT | – | 2 |
| D1D2D3CysD1, mucin 2 recombinant protein spanning residues 21 to 1397 (domain or fragment, human, UniProt Q02817 21-1397, looked up, mucin 2 (MUC2), human, Uniprot Q02817, residues 21 to 1397 (includes the CysD1 domain following a short threonine-rich segment); Probably made with the same QSOX1 signal peptide as MUC2D3, which would leave Ala-Pro at the N-terminus; also called the largest fragment; source: HEK293F, produced and purified essentially as for MUC2D3 (no kifunensine; preparative gel filtration in 10 mM Hepes pH 7.5, …)) SELQTEGRTRNHGHNVCSTWGNFHYKTFDGDVFRFPGLCDYNFASDCRGSYKEFAVHLKRGPGQAEAPAGVESILLTIKDDTIYLTRHLAVLNGAVVSTPHYSPGLLIEKSDAYTKVYSRAGLTLMWNREDALMLELDTKFRNHTCGLCGDYNGLQSYSEFLSDGVLFSPLEFGNMQKINQPDVVCEDPEEEVAPASCSEHRAECERLLTAEAFADCQDLVPLEPYLRACQQDRCRCPGGDTCVCSTVAEFSRQCSHAGGRPGNWRTATLCPKTCPGNLVYLESGSPCMDTCSHLEVSSLCEEHRMDGCFCPEGTVYDDIGDSGCVPVSQCHCRLHGHLYTPGQEITNDCEQCVCNAGRWVCKDLPCPGTCALEGGSHITTFDGKTYTFHGDCYYVLAKGDHNDSYALLGELAPCGSTDKQTCLKTVVLLADKKKNVVVFKSDGSVLLNELQVNLPHVTASFSVFRPSSYHIMVSMAIGVRLQVQLAPVMQLFVTLDQASQGQVQGLCGNFNGLEGDDFKTASGLVEATGAGFANTWKAQSSCHDKLDWLDDPCSLNIESANYAEHWCSLLKKTETPFGRCHSAVDPAEYYKRCKYDTCNCQNNEDCLCAALSSYARACTAKGVMLWGWREHVCNKDVGSCPNSQVFLYNLTTCQQTCRSLSEADSHCLEGFAPVDGCGCPDHTFLDEKGRCVPLAKCSCYHRGLYLEAGDVVVRQEERCVCRDGRLHCRQIRLIGQSCTAPKIHMDCSNLTALATSKPRALSCQTLAAGYYHTECVSGCVCPDGLMDDGRGGCVVEKECPCVHNNDLYSSGAKIKVDCNTCTCKRGRWVCTQAVCHGTCSIYGSGHYITFDGKYYDFDGHCSYVAVQDYCGQNSSLGSFSIITENVPCGTTGVTCSKAIKIFMGRTELKLEDKHRVVIQRDEGHHVAYTTREVGQYLVVESSTGIIVIWDKRTTVFIKLAPSYKGTVCGLCGNFDHRSNNDFTTRDHMVVSSELDFGNSWKEAPTCPDVSTNPEPCSLNPHRRSWAEKQCSILKSSVFSICHSKVDPKPFYEACVHDSCSCDTGGDCECFCSAVASYAQECTKEGACVFWRTPDLCPIFCDYYNPPHECEWHYEPCGNRSFETCRTINGIHSNISVSYLEGCYPRCPKDRPIYEEDLKKCVTADKCGCYVEDTHYPPGASVPTEETCKSCVCTNSSQVVCRPEEGKILNQTQDGAFCYWEICGPNGTVEKHFNICSITTRPSTLTTFTTITLPTTPTTFTTTTTTTTPTSSTVLSTTPKLCCLWSDWINEDHPSSGSDDGDRETFDGVCGAPEDIECRSVKDPHLSLEQLGQKVQCDVSVGFICKNEDQFGNGPFGLCYDYKIRVNCCWPMDKCIT | – | 2 |
